In paper PMC4587843, “Vascular Smooth Muscle Cells Stimulate Platelets and Facilitate Thrombus Formation through Platelet CLEC-2: Implications in Atherothrombosis” (PLoS ONE, 2015):

B1: GST-tagged S100A13 recombinant protein (natural protein, UniProt Q99584 1-98, looked up)
chain: MAAEPLTELEESIETVVTTFFTFARQEGRKDSLSVNEFKELVTQQLPHLLKDVGSLDEKMKSLDVNQDSELKFNEYWRLIGELAKEIRKKKDLKIRKK
notes: S100A13; also called S100A13-GST; recombinant S100A13-GST; source: bought: CycLex Co., Ltd. (Japan)

What was measured:
[1] = target: native CLEC-2 on the surface of murine platelets (mouse (endogenous in platelets)) (UniProt Q9JL99)
Chain of native CLEC-2 on the surface of murine platelets (mouse (endogenous in platelets)) (Q9JL99 whole entry, the tested form may be a part): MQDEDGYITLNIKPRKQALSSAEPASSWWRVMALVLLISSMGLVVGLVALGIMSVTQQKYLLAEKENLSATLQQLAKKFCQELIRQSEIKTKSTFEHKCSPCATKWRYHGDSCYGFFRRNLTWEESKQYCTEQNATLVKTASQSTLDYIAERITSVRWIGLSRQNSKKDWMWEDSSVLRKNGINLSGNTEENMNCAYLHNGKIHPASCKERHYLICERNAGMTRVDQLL

[2] = target: T1, recombinant extracellular domain of human CLEC-2 expressed as a dimeric rabbit immunoglobulin Fc domain … (human, UniProt Q9P126 55-229); experiment: SPR; hCLEC-2-rFc2 and control rFc2 amine-coupled to a CM5 chip, Biacore X; S100A13 in modified Tyrode's buffer with 1 mM CaCl2 perfused at 20 uL/min, 25 C; control surface subtracted; Kd by BIAevaluation; conditions: both partners purified
T1 construct: CLEC-2, human, extracellular domain; also called hCLEC-2-rFc2; human CLEC-2-rabbit Fc2; source: recombinant, generated as described previously [2]
T1 sequence (Q9P126 55-229): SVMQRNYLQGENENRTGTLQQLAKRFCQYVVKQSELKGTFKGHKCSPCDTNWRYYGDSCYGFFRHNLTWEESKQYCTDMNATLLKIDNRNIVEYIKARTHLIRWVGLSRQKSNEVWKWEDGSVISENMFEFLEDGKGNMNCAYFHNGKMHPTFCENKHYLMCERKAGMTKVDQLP

| Molecule | release of 5-HT or PDGF from washed murine WT platelets, percent of the total stored, maximum concentration of rhodocytin [1] [%] | Kd [2] [nM] |
| --- | --- | --- |
| rhodocytin (complex) | 60 |  |
| B1 |  | 137 |
